Assay results: patent publication US20080193979A1

Biological target: streptavidin (UniProt P22629)
Test: recovery of cells on streptavidin coated magnetic beads (Dynal)

Sequence of streptavidin (P22629 37-163 limits assumed): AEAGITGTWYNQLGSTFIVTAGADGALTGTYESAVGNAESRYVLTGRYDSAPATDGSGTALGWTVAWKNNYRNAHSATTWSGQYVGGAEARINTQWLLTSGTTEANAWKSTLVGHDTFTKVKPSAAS

Substance: Ramos IgM (unselected / wild-type Ramos cells, surface and secreted IgM) (antibody)
- proportion of cells which bind to the beads: 0.02%
